Test [1] concerns the target 33‐mer gliadin peptide (wheat). As to the kind of experiment: surface tension (Wilhelmy plate); titration of freshly filtered (220 nm cut-off) peptide into the subphase, nanomolar range, 22 °C; critical concentration of aggregation.
Test [2] has as its target 33‐mer gliadin peptide (wheat). As to the kind of experiment: other fluorescence titration; intrinsic Tyr steady-state fluorescence anisotropy against peptide concentration (100-600 μM), stabilised aqueous solution pH 6.5, 25 °C, excitation 280 nm, emission 305 nm; simple one-to-one binding model; step: association of oligomers into the larger structures. (Fluorescence polarisation rises when a labelled molecule tumbles more slowly, as on binding a larger partner.)

What is called Kd is a measure of binding affinity in units of concentration. Higher therefore signals a looser complex. The substance 33‐mer gliadin peptide registered a critical concentration of aggregation (CAC) in test [1] of 75 nM. In test [2], this substance gave a dissociation constant Kd of 165 µM.

Values taken from article PMC9828358.
